# Measurements published in US20210252159A1, “CONJUGATES OF CARTILAGE-HOMING PEPTIDES” (priority 2018, published 2021).
# Positions of bridges follow the written chain, without caps; N, C: chain ends. Residues, ends and D or L forms follow the SMILES beside them. *: point of attachment. X4 = C[C@@H]1C[C@H]2[C@@H]3CCC4=CC(=O)C=C[C@]4(C)[C@@]3(F)[C@@H](O)C[C@]2(C)[C@@]1(O)C(=O)COC(=O)[C@H]1CC[C@H](C(=O)*)CC1
# Legend:
# [1] = Hydrolysis assay of peptide-drug conjugates in PBS (free Dex by LC/MS); type: physicochemical; conditions: 37° C.
# Description: (§1) In order to determine hydrolysis rates, conjugates can be diluted in PBS, rat plasma, or human plasma and incubated at 37 degrees. Samples can be taken at designated time-points (e.g., 1, 2, 3, 5, 10, 15, 20, 25, 30, 45, 60, or 90 minutes and/or hours after administration). Internal standards such as triamcinolone acetonide (TAA) can be added as an internal standard, and then active agent/TAA can be extracted using acetonitrile, for example. The samples can be dried down, reconstituted, and analyzed by LC/MS. Data can be normalized using Dex AUC/TAA AUC. Percent hydrolysis can be calculated using the average ratio for active agent AUC/TAA AUC at a time point of maximal drug release. A general method can include using a lyophilized, purified peptide-drug conjugates reconstituted in DMSO following production to generate stock solution at 20 mg/mL. Each conjugate stock can be brought to 0.25 mg/mL in each hydrolysis condition (1×DPBS, human plasma and rat plasma) in triplicate and rocked at 37° C. To quantitate free active agent, 100 μl of the hydrolyzed conjugate solution can be transferred into 1 mL acetonitrile at 4° C. at which time all plasma proteins and intact conjugates can precipitate. This can be performed repeatedly to generate a series of time points (0 hr, 0.5 hr, 1 hr, 2 hr, 4 hr, 6 hr, 8 hr, 24 hr, 32 hr). The acetonitrile solution can be spun at 17,000 g for 5 minutes, and the supernatant removed and added to a 96 well block. The pellet can then be resuspended in 500 μl acetonitrile and re-pelleted as before. The supernatant can be removed and added to the same well in the block. Samples can be prepared for analysis by drying under a nitrogen stream followed by reconstitution in 110 μl 45:55 ACN:Citrate 10 mM pH 5.5. To ensure optimal recovery the block can be shaken via plate shaker at 7,000 rpm for 5 minutes during the reconstitution step. Prior to LC/MS the samples can be transferred to a 96 well plate and centrifuged at 6,500 g for 15 minutes. Analysis can be performed on an Agilent 1260 Infinity series HPLC with inline 6120 single quad MS using acetonitrile, water (+0.1% TFA) gradient (shown below) on an InfinityLab Poroshell SB-C18 column. Quantification of free active agent (or drug) can be achieved through integration of active agent peaks of the TIC.
# (§2) Lyophilized, purified peptide-drug conjugates were reconstituted in DMSO following production to generate stock solution at 20 mg/mL. Each conjugate stock was brought to 0.25 mg/mL in each hydrolysis condition (1×DPBS, human plasma and rat plasma) in triplicate and rocked at 37° C.
# (§3) To quantitate free dexamethasone (Dex), 100 μl of the hydrolyzed conjugate solution was transferred into 1 mL acetonitrile at 4° C. at which time all plasma proteins and intact conjugates precipitated. This was performed repeatedly to generate a series of time points (0 hr, 0.5 hr, 1 hr, 2 hr, 4 hr, 6 hr, 8 hr, 24 hr, 32 hr). The corticosteroid triamcinolone acetonide (25 μl, 0.1 mg/mL in 45:55 ACN:Citrate 10 mM pH 5.5) was supplemented into the acetonitrile solution as an internal standard. The acetonitrile solution was spun at 17,000 g for 5 minutes, and the supernatant removed and added to a 96 well block. The pellet was resuspended in 500 μl acetonitrile and re-pelleted as before. The supernatant was removed and added to the same well in the block.
# Samples were prepared for analysis by drying under a nitrogen stream followed by reconstitution in 110 μl 45:55 ACN:Citrate 10 mM pH 5.5. To ensure optimal recovery the block was shaken via plate shaker at 7,000 rpm for 5 minutes during the reconstitution step. Prior to LC/MS the samples were transferred to a 96 well plate and centrifuged at 6,500 g for 15 minutes. Analysis was performed on an Agilent 1260 Infinity series HPLC with inline 6120 single quad MS using a gradient of 0.1% TFA in acetonitrile (solvent B), and 0.1% TFA (aq) (solvent A) gradient (shown below) on an InfinityLab Poroshell SB-C18 column. […]
# [2] = Hydrolysis assay of peptide-drug conjugates in human plasma (free Dex by LC/MS); type: in vitro ADME; conditions: 37° C., release of free Dex, time points to 32 hr, read-out: Half-life (hours) as measured in the hydrolysis experiments (converted)
# Description: as §1, with “To ensure optimal recovery the block can be shaken via plate shaker at 7,000 rpm for 5 minutes during the reconstitution step. Prior to LC/MS the samples can be transferred to a 96 well plate and centrifuged at 6,500 g for 15 minutes. Analysis can be performed on an Agilent 1260 Infinity series HPLC with inline 6120 single quad MS using acetonitrile, water (+0.1% TFA) gradient (shown below) on an InfinityLab Poroshell SB-C18 column.” left out, “TIC. […]” for “TIC.”
# To quantitate free dexamethasone (Dex), 100 μl of the hydrolyzed conjugate solution was transferred into 1 mL acetonitrile at 4° C. at which time all plasma proteins and intact conjugates precipitated. […]
# CIA rats = system: CIA rats
# Description: Arthritis was induced in 9-week-old female Lewis rats (Envigo or Charles River Laboratories) by intradermal injection while anesthetized of 400 ug bovine type II collagen (Chondrex Inc, Redmond Wash.) in 2 adjacent 200 ul (1 mg/ml) doses on day 0. Collagen is prepared for injection by dissolving at 2 mg/ml in 0.01N glacial acetic acid in sterile water and rocking at 4° C. overnight then emulsifying in Freund's incomplete adjuvant (IFA, Sigma Aldrich). To emulsify, equal volumes of collagen solution and IFA are drawn up into separate syringes, which are joined by a 3-way stopcock. While on ice, the collagen and IFA are mixed by pressing between the two syringes rapidly for 10 minutes. Quality of the emulsification is tested after 10 minutes of mixing by dropping a small amount of mixture in water. A properly emulsified solution will remain as a discrete droplet and not disperse in the water. On day 7, rats are challenged with a second intradermal injection of 100 ug of collagen in 100 ul, 1 mg/ml, collagen in IFA solution prepared fresh. Body weight and ankle diameter measurements are recorded daily from day 7 through the end of the study. Ankle diameter was measure by a single researcher using a Fowler Digitrix 2 micrometer. Three measurements of each ankle were taken of the lateral dimension at the tarsus of lightly anesthetized rats. The reported ankle diameter measurement is the mean of the three measurements.
# Arthritis was induced as described in four cohorts of 9-week-old female Lewis rats. Rats were randomly placed in treatment groups, balancing compound and dose groups across cohorts. […] Rats were dosed by tail vein injection on days 11 and 12 and euthanized on day 13 by CO2 asphyxiation. Immediately after cessation of respiratory movement, blood was collected by cardiac puncture, synovial fluid was collected from both knees, one hind limb was fixed in formalin and the alternate ankle was frozen on dry ice. Thymus, spleen, liver, and kidney weights were recorded.
# CIA Response study design.
# The aim of the study was to test the 4 conjugates with various linkers at two different doses in vivo in CIA rats to assess the following: ability to deliver sufficient dexamethasone to the joint to show functionality and potential therapeutic effect in the disease model.
# CIA was induced in female Lewis rats (as described above, see EXAMPLE 21). Body weight and ankle joint diameters were measured on day 0 and then daily from day 7 until euthanasia. […] At euthanasia, synovial fluid was collected from both knees, one hind limb was fixed in formalin and the alternate ankle was frozen on dry ice. Thymus, spleen, liver, and kidney weights were recorded. Blood samples were submitted for CBC/Chemistry analysis, and the remaining plasma was frozen.
# [3] = Hydrolysis assay of peptide-drug conjugates in rat plasma (free drug by LC/MS); type: in vitro ADME; conditions: 37° C.
# Description: Peptide-drug conjugate peptide(SEQ ID NO: 105)-DMA-dCIC was incubated in rat plasma at 37° C. Samples were removed at regular intervals, processed by solvent extraction, and analyzed by LC/MS to quantitate free dCIC. 11 time-points were measured between 5 min and 56 hours with 3 replicates per time point. The assay was repeated two times.
# as §1, §2, §3
# Samples were prepared for analysis by drying under a nitrogen stream followed by reconstitution in 110 μl 45:55 ACN:Citrate 10 mM pH 5.5. To ensure optimal recovery the block was shaken via plate shaker at 7,000 rpm for 5 minutes during the reconstitution step. […]
structure (smiles),measurement,setting,value
"CC[C@H](C)[C@@H]1NC(=O)[C@@H]2CSSC[C@H](NC(=O)[C@H](CCCNC(=N)N)NC(=O)[C@@H](NC(=O)[C@H](CC(N)=O)NC(=O)[C@@H](NC(=O)[C@@H]3CCCN3C(=O)[C@@H](NC(=O)CNC(=O)[C@H](CO)NC(=O)CNC(=O)[C@H]3CC[C@H](C(=O)OCC(=O)[C@@]4(O)[C@H](C)C[C@H]5[C@@H]6CCC7=CC(=O)C=C[C@]7(C)[C@@]6(F)[C@@H](O)C[C@@]54C)CC3)C(C)C)[C@@H](C)CC)C(C)C)C(=O)N[C@@H](CCCNC(=N)N)C(=O)NCC(=O)N[C@@H](CO)C(=O)N[C@@H](CCCNC(=N)N)C(=O)N[C@@H](CC(=O)O)C(=O)N[C@H]3CSSC[C@H](NC(=O)[C@H](CCCNC(=N)N)NC(=O)[C@H](CO)NC(=O)[C@H](CC(N)=O)NC1=O)C(=O)N[C@@H](Cc1c[nH]cn1)C(=O)N[C@H](C(=O)N[C@H](C(=O)N1CCC[C@H]1C(=O)O)[C@@H](C)O)CSSC[C@H](NC(=O)[C@@H]1CCCN1C(=O)[C@H](CC(=O)O)NC(=O)[C@H](CC(C)C)NC3=O)C(=O)N[C@@H](CCCNC(=N)N)C(=O)N[C@@H](CCCNC(=N)N)C(=O)N[C@@H](C)C(=O)NCC(=O)N[C@@H](CCSC)C(=O)N[C@@H](CCCNC(=N)N)C(=O)N[C@@H](Cc1ccccc1)C(=O)NCC(=O)N[C@@H](CCCNC(=N)N)C(=O)N2 [Compound 25, Peptide(SEQ ID NO: 105)-trans-1,4-cyclohexyl-Dex] (X4-GSGVPINVRCRGSRDCLDPCRRAGMRFGRCINSRCHCTP-OH; disulfide 10-30, 16-35, 20-37 (inferred); C-terminus assumed)",Half-life (hours) as measured in the hydrolysis experiments,"[1]; PBS, release of free Dex, time points to 32 hr",undetectable ≤32
same,Hydrolysis half-life,"[1]; in PBS, free Dex",No Dex release ≤32 h
same,half-life at 0.25 mg/mL,[2],21.3 h
same,ankle swelling over time as compared to vehicle,CIA rats; 0.2 mg/kg and 0.5 mg/kg Dex equivalents IV days 11 and 12,reduction in ankle swelling
same,spleen weight,CIA rats; 0.2 mg/kg and 0.5 mg/kg dose,reduction
same,thymus weight,CIA rats; 0.2 mg/kg and 0.5 mg/kg dose,reduction
same,total body weight,CIA rats; 0.2 mg/kg and 0.5 mg/kg dose,reduction
same,change in median ankle diameter between day 11 and day 13 as compared to vehicle,CIA rats; 0.2 mg/kg dose,statistically significant reduction in ankle diameter
same,difference from Dex in change in ankle diameter,CIA rats; 0.2 mg/kg dose,no statistically significant difference
same,reduction in thymus weight as compared to vehicle,CIA rats; 0.2 mg/kg dose groups,statistically significant
same,half-life at 0.25 mg/mL,"[3]; Rat Plasma, release of free Dex, time points to 32 hr, read-out: Half-life (hours) as measured in the hydrolysis experiments (converted)",3.4 h
same,half-life at 0.25 mg/mL,"[3]; in rat plasma, free Dex, read-out: Hydrolysis half-life (converted)",3.4 h
